Patent US20060275803A1, “Rat and mouse members of the CRISP family of genes” (Wyeth, priority 2005, published 2006)

These sequences were tested against T1, rCRISPA (rCRISP1) (Rattus norvegicus, UniProt P12020) (assay: Protease activity screen: cleavage of substrate peptides by native rCRISPA (+DANA protocol), measured by fluorescence). Details: 5 μM substrate peptide, 1 μg enzyme, 100 mM NaCl, 25 mM Tris-Cl, pH 7.5; fluorescence at ten minute intervals for 130 minutes; FIG. 13.
T1 construct: Native rCRISPA (rCRISP1) protein, purified with DANA present; from tissue; host or cells: rat epididymis
T1 sequence (P12020 20-246): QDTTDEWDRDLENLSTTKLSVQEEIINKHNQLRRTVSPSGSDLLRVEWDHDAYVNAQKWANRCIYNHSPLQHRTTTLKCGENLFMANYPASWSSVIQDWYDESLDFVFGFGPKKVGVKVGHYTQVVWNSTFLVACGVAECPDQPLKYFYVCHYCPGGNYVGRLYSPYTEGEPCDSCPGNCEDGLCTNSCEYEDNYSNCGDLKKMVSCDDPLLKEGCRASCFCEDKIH
Assay type: biochemical
Method: FIG. 13 is a graph showing rCRISPA (rCRISP1) protease activity (assay conditions: 5 μM substrate peptide, 1 μg enzyme, 100 mM NaCl, 25 mM Tris-Cl, pH 7.5). A. Cleaved peptides A04 (RGARARLG), N08 (RKRRAPLA), N12 (AKRAASQI), N17 (RKRRAVLT), B22 (APQRFGKK), B17 (RQRYGKRS), B23 (RVKRYRQS), H03 (RNKRAVQG). B. Cleaved peptides B20 (PQRFGRNT), C16 (RVLGLKAH), J21 (LRNRAQSG), H07 (RVKRQVRS), H11 (RRLLRAIP), N05 (RARRELAP), H01 (RKKRSTKK), O22 (GGVRGPRV), O16 (AATRRQAV), O23 (KNVAMQKG), G24 (RRKRSTRE), A09 (RMRRYADA), M02 (EKQRIIGG), H17 (NGLRADPM). C. Uncleaved peptides L16 (KTPRWGG), N10 (FYRADQPR), B11 (AAGVAPLS), J03 (PQLHSTGG), C01 (GPQGLLGA), K11 (VIPRSGGS), M07 (GLQRALEI), A01 (WQGGRRKF), H02 (RAKRSVHF), A10 (SAARPAPP), M16 (RSRREADL), A05 (SYRKVLGQ), M18 (VHRDMAAR), C23 (RDAQAHPG), M09 (GSQHIRAE), E19 (RLGREGVQ), D06 (ALAEAMKK).
Native rCRISPA (rCRISP1) protein, purified with DANA present (see Example 4), was screened for the ability to cleave 360 unique peptides using the commercially available peptide substrate set (catalog # PrSS-360-75, JPT Peptide Technologies, Springfield, Va.). […] The substrate peptides cleaved by rCRISPA in this assay are represented by blue and green traces noted in FIG. 13. Peptides that were not cleaved by rCRISPA are also noted in FIG. 13.
“APQRFGKK [B22, substrate peptide of the commercial peptide substrate set PrSS-360-75, JPT Peptide Technologies]” was tested, and the “cleavage of substrate peptide by rCRISPA (rCRISP1) protease activity” value (“cleavage of substrate peptide by rCRISPA” for short) was “Cleaved”. For “RKRRAVLT [N17, substrate peptide of the commercial peptide substrate set PrSS-360-75, JPT Peptide Technologies]”, the “cleavage of substrate peptide by rCRISPA” value was “Cleaved”. For “RNKRAVQG [H03, substrate peptide of the commercial peptide substrate set PrSS-360-75, JPT Peptide Technologies]”, the “cleavage of substrate peptide by rCRISPA” value was “Cleaved”. In the case of “PQLHSTGG [J03, substrate peptide of the commercial peptide substrate set PrSS-360-75, JPT Peptide Technologies]”, the “cleavage of substrate peptide by rCRISPA” value is reported as “Uncleaved”.
